{
  "source": "the DeepSol protein solubility set",
  "data": [
    {"test": "soluble on expression in E. coli; label from the status in PepcDB or PDB records", "values": [
      {"sequence": "GSHMQGQSPIKDQEMKELIRRSQEGDQEARDEIIEKNMRLVWSVVQRFLNRGYEADDLFQIGCIGLLKSVDKFDLSYDVKFSTYAVPMIIGEIQRFLRDDGTVKVSRSLKEMGNKIRKAKDELSKTRGRAPTVTEIADHLGISPEDVVLAQEAVRLPTSIHETVYENDGDPITLLDQIADADEASWFDKIALKKAIEELDERERLIVYLRYYKDQTQSEVASRLGISQVQMSRLEKKILQHIK", "soluble on expression in E. coli": "soluble"},
      {"sequence": "MDIVDEKWEEYLKNLDEMSKSALLETFNIGASHAATALSEMTGKEVNISVPDLKIIAIKNVPEVVGEDVKVAVYIELGKDFSSHAFFIADYEDALRMFDIIMGNPLGTTKEMDEMVKSSFMEVGNILISAFANALSEFLGITIEQTPPSLAIDFLPAILDFALADIGKYCDYTIILQTNIKISDVKFEEHFLLFPKPEDMKKILEKLLGGFA", "soluble on expression in E. coli": "soluble"},
      {"sequence": "MSLGGDNAEYGYVEQTHPAFIAGSFTTEKNAKSRYYLLAKYEMTVLQYSALTQAECPAPSNKQRLPVVSLSWMQAMEAADKYNIWLRENAADKLPKEDGVAGFLRLPTEVEWEFAARGGLNVSTAEFRDLRYPMPEGVNAYEWFAGTQSANGQLQLSGLLKPNPLGLHDMLGNVDEMMFEPFRLNKLDRQHGQAGGYVVRGGDFRTAQGELRSSLRKERNYYDAKAAATSKTTGVRLALASSTLTSRERVSSIETSWKKLGTGSGDTSQGEDKSAVQALGTLASGVADEALKEKLKALENQLRASNQQQEETRDQAIRASLNLGAFLCTKMLDDGKYLDFLQKNYALNCSAAEQDASCPMRKGKLDEQKDRLHKLSRYYASSLVDSATLYGEPLLARQIPVMGEIISRNEQLKELKPYLQTHWVNQQAFLKTQKIDTDAWLNRCKAVQEGHHHHHH", "soluble on expression in E. coli": "not soluble"},
      {"sequence": "MTRQFLEFEQPIEELNQKIEALRMVGSDNEVNLSEEIARLEAKCSELTENIFSRLEPWQIAQMARHPLRPQTTDYIERIFTDFQELHGDRSYSSAPAIIGGMARLNGEPVMVLGHQKGKRTKEKVYRNFGMARPEEYRKALRLMRMAEKFKMPVVTFIDTAGAYPGIGAEERNQSEAIARNLFAMSRIKTPIVCIVTGEAGSGGALAIGVGDKIIMLQFSIYSVISPEGCASILWKDASKASEAARAMGITADRIFENELVDMVVPEPLGGAHRDVDEMASRLKRLLTSELQALKKVPLDQLIELRYQKFMAMGACD", "soluble on expression in E. coli": "not soluble"},
      {"sequence": "MGSDKIHHHHHHMTQYEVDIMYEVKLDAFNGPLDLLLHLIQKFEIDIYDIPMQALTEQYMQYVHAMKQLEINIASEYLVLASELLMIKSKMLLPQSTSDMDVDDDPREDLVGRLIEYQNYKEYTAILNDMKEERDFYFTKRPTDLSHLETDESWDPNHTIDLTELIVAYQRVKNRVELNTPKSVEIRKETFTIQQATEQVTSRLKDKDHFNFFSLFTFSEPIEQVVTHFLAILEMSKAGIINIEQQRNFEDINIIRGVNYHFG", "soluble on expression in E. coli": "not soluble"},
      {"sequence": "MICPRCADAHIELMATSPVKGVWTVYQCQHCLYTWRDTEPLRRTSREHYPQAFRMTQKDIDDAPMVPSIPPLLAEDKR", "soluble on expression in E. coli": "not soluble"},
      {"sequence": "MGSDKIHHHHHHMTVAVDLPIPAKLVPVFTKENVRYRGAHGGRGSAKTRTFAMMSAVRAYQAAESGTSGVILCAREFMNSLEESSMEEVKQAIRSIPWLDDYFEIGEKYIRTKNRLVNYVFCGLRHNLDSIKSKARILLAWIDEAESVSETAWKKLRPTVRESGSEIWVTWNPEKDGSATDKRLRKKPPKSSIIVEMNYSDNPWFPDVLEEERQEDLESLDHSDYAWIWEGAYLENSEKQVLANKYKIESFPDDLWMQADRLLFGADFGFARDPSTLLRMFILDNCLYIDREAYSVGVELDHMPAFYDQVPESRKWPIKADSARPETISYLKRQGFNISAAKKWQGSVEDGITFLRGFKKIIIHPRCKETAKEARLYSYKVDRITGEVLPIIEDAHNHCWDAARYGLDGYIKGRTTVWDIM", "soluble on expression in E. coli": "not soluble"},
      {"sequence": "MPIATPEVYAEMLGQAKQNSYAFPAINCTSSETVNAAIKGFADAGSDGIIQFSTGGAEFGSGLGVKDMVTGAVALAEFTHVIAAKYPVNVALHTDHCPKDKLDSYVRPLLAISAQRVSKGGNPLFQSHMWDGSAVPIDENLAIAQELLKAAAAAKIILEIEIGVVGGEEDGVANEINEKLYTSPEDFEKTIEALGAGEHGKYLLAATFGNVHGVYKPGNVKLRPDILAQGQQVAAAKLGLPADAKPFDFVFHGGSGSLKSEIEEALRYGVVKMNVDTDTQYAFTRPIAGHMFTNYDGVLKVDGEVGVKKVYDPRSYLKKAEASMSQRVVQACNDLHCAGKSLTHHHHHH", "soluble on expression in E. coli": "soluble"},
      {"sequence": "MQKQLLLGVEAIAQAALDAGISGVYAYPGTPSTEITEHIQNSRMAKERNVHREWAANEKTAMESALGMSYAGKRALVCMKHVGMNVAADCFMNAAITGANGGMVIVAADDPSMHSSQNEQDSRVYGQFAMIPVMEPSNQQEAYDMTRLAFDLSERLGTPVMMRITTRLAHSRAGVVQTEPIGENELHLP", "soluble on expression in E. coli": "not soluble"},
      {"sequence": "MSLKIKKSKLIGFVVADITNPFSVAAFRGVEEVCDQYGYSIMVCNTDNSPEKEREMLLKLEAHSVEGLILNATGENKDVLRAFAEQQIPTILIDRKLPDLKLDTVTTDNRWITKEILQKVYSKGYTDVALFTEPISSISPRAERAAVYQEMASVQNVNGLVRLHEIDVKDKEQLKAELRSFHKEMPEQKKAILALNGLIMLKIISCMEELGLRIPQDIGIAGFDDTEWYKLIGPGITTIAQPSHDMGRTAMERVLKRIEGDKGAPQTIELEAKVIMRKSLEGHHHHHH", "soluble on expression in E. coli": "soluble"},
      {"sequence": "MDPSVTLWQFLLQLLREQGNGHIISWTSRDGGEFKLVDAEEVARLWGLRKNKTNMNYDKLSRALRYYYDKNIIRKVSGQKFVYKFVSYPEVAGC", "soluble on expression in E. coli": "soluble"},
      {"sequence": "MTAAEHGLHAPAYAWSHNGPFETFDHASIRRGYQVYREVCAACHSLDRVAWRTLVGVSHTNEEVRNMAEEFEYDDEPDEQGNPKKRPGKLSDYIPGPYPNEQAARAANQGALPPDLSLIVKARHGGCDYIFSLLTGYPDEPPAGVALPPGSNYNPYFPGGSIAMARVLFDDMVEYEDGTPATTSQMAKDVTTFLNWCAEPEHDERKRLGLKTVIILSSLYLLSIWVKKFKWAGIKTRKFVFNPPKPRK", "soluble on expression in E. coli": "soluble"},
      {"sequence": "MEFKEYKGKNVDEAITNACIDLGIEAAKLEYEVIEKGSNGFLGIGSKPAIIKAKKNQSVEDIAREFLNKVFTAMELTVKIDIKIVENEKENIVNINIIGEDMGILIGKRGQTLDSLQYLVSLVINKECEKFNRVKLDTENYRERRKATLENLARNISLKVKRIKKPVALEPMNPYERRIIHSALQNDKFCTTKSEGDEPYRHVVVMLKKDAR", "soluble on expression in E. coli": "not soluble"},
      {"sequence": "MIKKAFCMQVYPDQHAEYQRRHEKLWPEMRQMLKEHGAIKYQIFLNPETSTLFGYLEIEDEARWEQIALTPINQKWWNYMEDIMETNPDCSPMTAELKKVFEL", "soluble on expression in E. coli": "not soluble"},
      {"sequence": "SSKALLALKSQVEKRKAELQTQNRTKKWKRIGDQWKEEDKIQEQETFLEAHSPIESKQENGTETSNKEPPLLKEEVIERLRAWEQPATLFGETDYERYIRLRDLELRNSEESKGQRNIFQQKLRQFKEKDELENFYRVTEMELPSKGSAAQKVKEEIYAAEEGPEFFKTPEEYCFRYMRRLLKMWKAEVEQLDEETKRTSLGRKTLATFEQTKEYLKPLFRKLKKQQLDKSILTSLEKILRYVEQREYVLANDEYLRLAIGNAPWPVGATMVGIHARTAREKISEGKIAHVMNDEETRKYIQAVKRLITLSQKWYPTVPSKMVVG", "soluble on expression in E. coli": "soluble"},
      {"sequence": "MDDRLYAPATERNRDAILAVLKDELRSPGTVLEIASGTGEHGAYFAPQLPDYFWQPSDPNEESRRSIAAWRSHVNAPNLGEAIAIDVTRSDWVESVPEFPQPVVAIAAINLIHISPWEATLGLFAGAKQLLSVDGLIYLYGAYKRGGQHTAPSNEAFDASLQARNPAWGARNLEDVTAVAEAEQFRLDRIVEMPSNNLSVCFRAIALEHHHHHH", "soluble on expression in E. coli": "soluble"},
      {"sequence": "MGSDKIHHHHHHMTNTLKTSYQKTPYKLGGNGPRNVGVLTEALQNIDDNSESDIYGNGAVIENFETKIAKILGKQSAVFFPSGTMAQQIALRIWADRKENRCVAYHPLSHLEIHEQDGLKELQQITPILLGTANRLLTIDDIKSLREPVSSVLIELPQREIGGQLPSFEELEEISEYCHEQGISLHLDGARLWEIMPFYQKSAEDICSLFDSVYVSFYKGIGGIAGAILAGNADFVQEAKIWKRRYGGDLISLYPYILSADYYFEKRIGKMAEYFEAAKGLAERFNSCPGLKTVPEVPISNMFHVYFEKSADEVGTILTKIQDETGVGISGYLQEKSADVCAFEVSVGDAFAEIPTKDLESAFECLEKELRL", "soluble on expression in E. coli": "not soluble"},
      {"sequence": "KKSPMLCGQYPVKSEGKELKIVVQPETQHRARYLTEGSRGSVKDRTQQGFPTVKLEGHNEPVVLQVFVGNDSGRVKPHGFYQACRVTGRNTTPCKEVDIEGTTVIEVGLDPSNNMTLAVDCVGILKLRNADVEARIGIAGSKKKSTRARLVFRVNIMRKDGSTLTLQTPSSPILCTQPAGVPEILKKSLHSCSVKGEEEVFLIGKNFLKGTKVIFQENVSDENSWKSEAEIDMELFHQNHLIVKVPPYHDQHITLPVSVGIYVVTNAGRSHDVQPFTYTPD", "soluble on expression in E. coli": "soluble"},
      {"sequence": "MGSDKIHHHHHHMDGKVMAGTRIEKVMANIRQRITSRSLVPGARLPSVRALAKTMQLSTSTIVEAYDRLVADGTISSRPGSGFFVAGPLAPLSLADIEPRLDRAVDPLWVSRQALDDGSALAKPGCGWLPASWMPQEALRRAMRGLARADDALLTDYGSPMGLLPLRQLLSRRLAEHGVQAGASQIMLTDSGTQAIDLLCRFLLQPGDTVVVDDPCYFNFHALLRAHRVKIVGVPYTPAGPDLPLFEQALKEHQPRLYITNSAIHNPTGARLSAVSAHRLLMLAEQPGLTIIEDDIFADFETQAAPRLAAFDGLNRVVQIGSFSKTLSASVRCGFIAAPRAWVEALTDLKIATAFGGTHFSAALVLSLLTDGSYRKHVEALRQRLAAAVPEAATRLRSIGCMPWIEPQAGMFLWCRLPEGTDAADVAQRALARQVVLAPGNVFSSSQNASGFMRFNVSQMVGPQVMTVLADALR", "soluble on expression in E. coli": "not soluble"},
      {"sequence": "MSLNFTALDFETANTHKTSICAVGMAIVEDGKVVKTISKLIKPVPDFYSYWNVQIHGITPDMTADAPYFIDVWQELKQYIDYSTLVAHNAAFDVGALRSILTTHEVSFPKTDYFCSCSVSRKVFKEIENHKLSTVCRHIDVPLNHHEAESDAIGAAQIIIKAGERLGANSIEELMAMLKMKLKVEGHHHHHH", "soluble on expression in E. coli": "not soluble"},
      {"sequence": "MAVLWRLSAVCGALGGRALLLRTPVVRPAHISAFLQDRPIPEWCGVQHIHLSPSHHSGSKAASLHWTSERVVSVLLLGLLPAAYLNPCSAMDYSLAAALTLHGHWGLGQVVTDYVHGDALQKAAKAGLLALSALTFAGLCYFNYHDVGICKAVAMLWKL", "soluble on expression in E. coli": "not soluble"},
      {"sequence": "MGSDKIHHHHHHMSLKAKLARKFVYAVFPDVRKYTSIKPAFENSPDSPEGRLVPEVVALYGKPGVHILKMALVLPYLVGTAYYARKSVTSVRRNPGKGKKTAPPEFFEELESYAKSLGVLKVGYTKLTPELVFSNRAVLFENAIVLIGEMRKKEIAKAPGVRAGMEVWRTYYRLTRAAYKIAEFLRERGYNAQPDPAVGRSTNFPLLAQKAGLDHIGKHGLLITPENGPSVRIGAVYTDLELPYTDERVREHGWIPHFCDRCNACVRACPAQAIYITPRRENGREVHIDYKRCAVIFSRTLGCSICVKECTFTKGSYEKIKRVHEKIRNR", "soluble on expression in E. coli": "not soluble"}
    ]}
  ]
}
